Assays:
[1] = Antibody production titers in Chinese hamster ovary cells; details: CHO transient transfection, after Protein A purification
Excerpt: The yields represent antibody amounts following purification from cell culture media by Protein A affinity chromatography, carried out under identical transfection conditions and culture scale. Differential pre-purification titers based on quantification using Protein-A biosensors (bio-layer interferometry) of antibody in culture media was also noted likewise indicating differential expression levels (antibody titers).

MM1.S (Luc) cells = assay: MM.1S Luc xenograft multiple myeloma model in C.B-17 SCID mice, dose escalation (Example 7); assay type: in vivo
[2] = Differential scanning fluorescence (DSF) thermal stability; assay type: physicochemical; details: PBS pH 7.4, 25-95 °C, first thermal transition
Excerpt: Thermal stability represents an important property of antibodies and is used as a predictive surrogate of pharmaceutical drug stability in humans based on a relative stability profile as characterized by differential thermal melting profiles. Several methods exist for evaluation of product stability based on thermal melting. These include, for example, circular dichroism (CD), differential scanning calorimetry (DSC), and differential scanning fluorescence (DSF), among others. In this example, the thermal stabilities of select humanized anti-CD138 antibodies were evaluated by DSF. DSF was used to monitor the conformational stability of a protein as it was exposed to increasing thermal stress. The dye, SYPRO Orange®, fluoresces in a hydrophobic environment, such as hydrophobic core residues that are exposed during thermally triggered protein unfolding, or denaturation. In brief, SYPRO® Orange Dye (Sigma Chemical) was diluted 1:500 in phosphate buffered saline (PBS), pH 7.4, without addition of any detergents. Antibodies were likewise diluted in PBS to a target concentration of 0.5 mg/mL. 15 μl of diluted antibody and fluorescent dye were added 1:1 (v/v) into a 96 well microtiter plate and thoroughly mixed by repeat pipetting. Thermal scans were carried out using a real-time quantitative PCR (qPCR) thermal cycler with fluorescence detection capabilities. Scans were initiated at 25° C. with incremental increase in well temperature of 1° C. ramp/minute from 25° C. to 95° C. The mid-point (Tm) between native state and the first unfolding event was reported as the transition temperature or melt temperature (TM). TMs were then calculated based on transformation of the data using the first derivative of the fluorescence signal versus time. (dfluoresence/dtime) (FIG. 7).

B1: mAb 2810: parental mouse-human chimeric anti-CD138 antibody; VH SEQ ID NO: 296, VL SEQ ID NO: 292 (antibody, V domains shown)
VH: QVQLHQPGTSLVKPGASVKLSCKASGYSFSSYYMHWVKQRPGQGLEWIGTIHPSDSTTNYNQKFKGKATLTVDKSSRTAYMQLNSLTFEDSAVYYCANFVYWGQGTSVTVSS
VL: DIVITQDELSNPVTSGDSVSISCRSSKSLLYKDGKTYLNWFLQRPGQSPQLLIYVVSTRASGVSDRFSGSGSGTDFTLEISRVKAEDVGVYYCQQLVEYPYTFGGGTKLEIK
- Expression [1]: 30.2 mg/L
- Median % T/C (whole body BLI) (MM1.S (Luc) cells; day 35, vs vehicle control): 13.1%
- Tumor growth delay (time to median BLI of 1.0×10^9 p/s) relative to vehicle control (MM1.S (Luc) cells; i.p. twice weekly, mAb 4320 4, 8, 16 mg/kg, mAb 2810 4 mg/kg): 6.6 days
- TM1 [2]: 61.9 °C
